Results published in paper PMC7865074, “Role of PDZ-binding motif from West Nile virus NS5 protein on viral replication” (Scientific Reports, 2021).
Ends that are not written are not given here.

B1: SH3 and multiple ankyrin repeat domains protein 3, PDZ domain (holdup construct) (domain or fragment, human, UniProt Q9BYB0 646-740, looked up)
chain: VAVLQKRDHEGFGFVLRGAKAETPIEEFTPTPAFPALQYLESVDVEGVAWRAGLRTGDFLIEVNGVNVVKVGHKQVVALIRQGGNRLVMKVVSVT
notes: also called SHANK3; source: E. coli, PDZome V.2 library, high-throughput expression
B2: Connector enhancer of kinase suppressor of ras 3, PDZ domain (holdup construct) (domain or fragment, human, UniProt Q6P9H4 211-293, looked up)
chain: EVHLPNIKPGEGLGMYIKSTYDGLHVITGTTENSPADRSQKIHAGDEVIQVNQQTVVGWQLKNLVKKLRENPTGVVLLLKKRP
notes: also called CNKSR3; source: E. coli, PDZome V.2 library, high-throughput expression
B3: Na(+)/H(+) exchange regulatory cofactor NHE-RF1, PDZ domain 1 (holdup construct) (domain or fragment, human, UniProt O14745 14-94, looked up)
chain: LCCLEKGPNGYGFHLHGEKGKLGQYIRLVEPGSPAEKAGLLAGDRLVEVNGENVEKETHQQVVSRIRAALNAVRLLVVDPE
notes: source: E. coli, PDZome V.2 library, high-throughput expression
B4: T-lymphoma invasion and metastasis-inducing protein 2, PDZ domain (holdup construct) (domain or fragment, human, UniProt Q8IVF5 890-976, looked up)
chain: DVQLTKTGSVCDFGFAVTAQVDERQHLSRIFISDVLPDGLAYGEGLRKGNEIMTLNGEAVSDLDLKQMEALFSEKSVGLTLIARPPD
notes: also called TIAM2; source: E. coli, PDZome V.2 library, high-throughput expression
B5: MAGUK p55 subfamily member 5, PDZ domain (holdup construct) (domain or fragment, human, UniProt Q8N3R9 256-336, looked up)
chain: IVRIEKARDIPLGATVRNEMDSVIISRIVKGGAAEKSGLLHEGDEVLEINGIEIRGKDVNEVFDLLSDMHGTLTFVLIPSQ
notes: also called MPP5; source: E. coli, PDZome V.2 library, high-throughput expression
B6: Microtubule-associated serine/threonine-protein kinase 2, PDZ domain (holdup construct) (domain or fragment, human, UniProt Q6P0Q8 1104-1192, looked up)
chain: PIIIHRAGKKYGFTLRAIRVYMGDSDVYTVHHMVWHVEDGGPASEAGLRQGDLITHVNGEPVHGLVHTEVVELILKSGNKVAISTTPLE
notes: also called MAST2; source: E. coli, PDZome V.2 library, high-throughput expression
B7: Protein scribble homolog, PDZ domain 1 (holdup construct) (domain or fragment)
chain: not shown
notes: also called SCRIB_1; source: E. coli, PDZome V.2 library, high-throughput expression
B8: FERM and PDZ domain-containing protein 4, PDZ domain (holdup construct) (domain or fragment, human, UniProt Q14CM0 78-155, looked up)
chain: KVEMRRDPVLGFGFVAGSEKPVVVRSVTPGGPSEGKLIPGDQIVMINDEPVSAAPRERVIDLVRSCKESILLTVIQPY
notes: also called FRMPD4; source: E. coli, PDZome V.2 library, high-throughput expression
B9: PDZ domain-containing protein 7, PDZ domain 3 (holdup construct) (domain or fragment, human, UniProt Q9H5P4 862-934, looked up)
chain: TVTLSKMKQSLGISISGGIESKVQPMVKIEKIFPGGAAFLSGALQAGFELVAVDGENLEQVTHQRAVDTIRRA
notes: also called PDZD7_3; source: E. coli, PDZome V.2 library, high-throughput expression
B10: Partitioning defective 3 homolog, PDZ domain 3 (holdup construct) (domain or fragment, human, UniProt Q8TEW0 590-677, looked up)
chain: EVPLNDSGSAGLGVSVKGNRSKENHADLGIFVKSIINGGAASKDGRLRVNDQLIAVNGESLLGKTNQDAMETLRRSMSTEGNKRGMIQ
notes: also called PARD3_3; source: E. coli, PDZome V.2 library, high-throughput expression
B11: Protein piccolo, PDZ domain (holdup construct) (domain or fragment, human, UniProt Q9Y6V0 4496-4590, looked up)
chain: RIKITRDSKDHTVSGNGLGIRIVGGKEIPGHSGEIGAYIAKILPGGSAEQTGKLMEGMQVLEWNGIPLTSKTYEEVQSIISQQSGEAEICVRLDL
notes: also called PCLO; source: E. coli, PDZome V.2 library, high-throughput expression
B12: Disks large homolog 4, PDZ domain 3 (holdup construct) (domain or fragment, human, UniProt P78352 313-393, looked up)
chain: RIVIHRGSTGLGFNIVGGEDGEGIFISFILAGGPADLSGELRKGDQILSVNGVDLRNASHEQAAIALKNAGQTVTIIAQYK
notes: also called DLG4_3; source: E. coli, PDZome V.2 library, high-throughput expression
B13: Partitioning defective 3 homolog B, PDZ domain 1 (holdup construct) (domain or fragment, human, UniProt Q8TEW8 201-289, looked up)
chain: TRTVEISGEGGPLGIHVVPFFSSLSGRILGLFIRGIEDNSRSKREGLFHENECIVKINNVDLVDKTFAQAQDVFRQAMKSPSVLLHVLP
notes: also called PARD3B_1; source: E. coli, PDZome V.2 library, high-throughput expression
B14: Membrane-associated guanylate kinase, WW and PDZ domain-containing protein 3, PDZ domain 2 (holdup construct) (domain or fragment, human, UniProt Q5TCQ9 410-492, looked up)
chain: RASLKKSTMGFGFTIIGGDRPDEFLQVKNVLKDGPAAQDGKIAPGDVIVDINGNCVLGHTHADVVQMFQLVPVNQYVNLTLCR
notes: also called MAGI3 _2; source: E. coli, PDZome V.2 library, high-throughput expression
B15: Membrane-associated guanylate kinase, WW and PDZ domain-containing protein 1, PDZ domain 2 (holdup construct) (domain or fragment, human, UniProt Q96QZ7 472-554, looked up)
chain: HTKLRKSSRGFGFTVVGGDEPDEFLQIKSLVLDGPAALDGKMETGDVIVSVNDTCVLGHTHAQVVKIFQSIPIGASVDLELCR
notes: also called MAGI1_2; source: E. coli, PDZome V.2 library, high-throughput expression
B16: PDZ domain-containing protein GIPC3, PDZ domain (holdup construct) (domain or fragment, human, UniProt Q8TF64 112-192, looked up)
chain: EVEVTKTEDALGLTITDNGAGYAFIKRIKEGSIINRIEAVCVGDSIEAINDHSIVGCRHYEVAKMLRELPKSQPFTLRLVQ
notes: as for B3
B17: Regulating synaptic membrane exocytosis protein 2, PDZ domain (holdup construct) (domain or fragment, human, UniProt Q9UQ26 668-754, looked up)
chain: DGSVPRDSGAMLGLKVVGGKMTESGRLCAFITKVKKGSLADTVGHLRPGDEVLEWNGRLLQGATFEEVYNIILESKPEPQVELVVSR
notes: also called RIMS2; source: E. coli, PDZome V.2 library, high-throughput expression

Target: T1, biotinylated WNV NS5 PBM peptide (West Nile virus, also: biotinyl group, end not given here)
T1 construct: bait of the holdup assay; also called 13-mer peptide; source: synthetic peptide (solid phase, Fmoc; Proteogenix)
T1 peptide: RYEDTTLVEDTVL
Assay: holdup assay (automated high-throughput chromatography); biotinylated NS5 PBM peptide as bait against 259 human PDZ domains expressed in E. coli; read-out binding intensity (BI), mean of replicates; BI threshold 0.2 for a significant interaction

Row | Binder | BI (holdup binding intensity)
1 | B1 | 0.39
2 | B2 | < 0.15
3 | B3 | 0.68
4 | B4 | < 0.15
5 | B5 | < 0.15
6 | B6 | 0.72
7 | B7 | 0.27
8 | B8 | 0.32
9 | B9 | 0.27
10 | B10 | 0.29
11 | B11 | < 0.15
12 | B12 | 0.24
13 | B13 | 0.48
14 | B14 | 0.61
15 | B15 | 0.55
16 | B16 | < 0.15
17 | B17 | < 0.15
